Substrate in the data set: Nc1nc2c(c(=O)[nH]1)N[C@@H](CN(C=O)c1ccc(C(=O)N[C@@H](CCC(=O)O)C(=O)O)cc1)CN2
Put plainly: purified protein. The class given is biochemical, Apis mellifera. The note with it: dehydrogenase reaction, 200 μM NADP+, 100 mM β-mercaptoethanol, Tris/HCl pH 7.6 (pH of highest Vmax), 30°C.

B1: Amel_10-FTHFDH (10-formyl tetrahydrofolate dehydrogenase of A. mellifera) (Apis mellifera) (protein)
chain: AQLKVAIIGQSNFAAEVYKLLKLNGHQITGVFTIPDKGNREDPLAITAKIDNTPVFKIKSWRSKGVTLPEVLQLYKGIEVDLNVLPFCSQFIPMEVINHPRHRSICYHPSLLPRHRGASAITWTLIEGDDTAGFSIFWADDGLDTGPILLQRSCKVNSNDTLDSLYNNFLYPEGIKAMAEAVNLVAKGTAPMIPQTEEGATYDPMMNKKELQKIDWTKPAKQVHDFIRSLDSTPGAWTIIDGEEVRLFGSILWNDDQIPEHEIEVNVEDRLGIIHKDGLLIKAVDNHFVNVERMKVGTRTILASKFGQKSEDTIIEFTAEEQKMIESLKRTWEGILNMDVNEDTDFFACGAGSMDVIRLVEEVKDNLGVILQNIDVFMSPVFIQFVNKVVLTARGISTSKEIKYDAVEVQTNNMTLKFPRQLFINGEFVNGHGNPIDTINPHDETIICSVETGTVEDVDKAVKAAKKAFEEGEWSKISARERGVLLFKLADLMEEHKEELATIESIDSGAVYTLALKTHIGMSIETWRYFAGWCDKIQGSTIPITHARPNRNLTFTRKEPIGVCGLVTPWNYPLMMLSWKMAACLAAGNTVVMKPAQASPLTALKFAELTAKAGFPPGVVNIVPGNGTETGNAICEHLLIRKLGFTGSTQIGQSIMKSCANSNLKKVSLELGGKSPLVIFEDTDLQQAIKIAMSSVFFNKGENCIAAGRLFVEETIHDEFLQRIVEETKKISIGNPLDRSTAHGPQNHKAHLNKLLKFVERGVKEGAKLIYGGKRLDRPGWYFEPTIFTDVKDDMYIAKEESFGPIMVISKFSSKNIDDMIARANNTEYGLASGILTKDISKALRFAEKIEAGTVFINTYNKTDVAAPFGGFKMSGFGKDLGQEALNEYLKTKTITVEY
notes: complete ORF, N-terminal 6xHis tag kept (…... from primer), baculovirus / Hi5 insect cells, Ni-NTA, about 100 kDa
Turning to B1, the Km was found to be 9.596 µM.

Source of the values: paper PMC10926475, “A Detoxification Enzyme for Apis mellifera Newly Characterized by Recombinant Expression: 10-Formyl Tetrahydrofolate Dehydrogenase” (Frontiers in Insect Science, 2022).
